Results from patent US11648277B2, “Combination therapy with gold controlled transgenes” (Chimera Bioengineering, Inc., priority 2019, dated 2023).

What was measured:
CD4+ T-cells = assay: Luciferase-RDE bioluminescence in anti-CD19 CAR T-cells, resting vs Raji co-culture; format: cell-based; conditions: for increase in bioluminescence with CAR stimulation: Raji co-culture 24 h vs resting
Description: Combinations of these inserts/cassettes shown in FIG. 3 were placed in the similar lenti virus constructs. The anti-CD19 CAR cassette and the insert with the luciferase-RDE are transcribed in opposite directions, and the control regions for each are located in between the two insert/cassettes. The control region for the Luciferase-RDE insert and Luciferase-3′-UTR were either a MinP promoter or an NFAT promoter. The control region of the anti-CD19 CAR cassette was the MND promoter, and CD4+ T-cells were transduced with the bicistronic construct.
The transduced T cells were allowed to return to resting state, and then were tested after stimulation as follows. For the ‘no stimulation’ set, transduced T-cells were incubated for 24 h alone in medium. For the ‘Raji co-culture’ set CD19+ Raji B cells were incubated with the transduced T cells for 24 h. At 24 h, the T cells were stained for CD25 and CD69, which are activation markers, and subject to flow cytometry to measure these markers and luciferase expression in the T cells.

T-cells = assay: Removal of microRNA binding sites from an RDE, expression from constructs; format: cell-based; conditions: MIR186 micro-RNA sites removed from the 3′-UTR of IL-2
Description: The AU-rich element from the 3′-UTR of IL-2 has mir-181 and mir 186 microRNA binding sites. Different combinations of the microRNA sites were removed from the 3′-UTR of IL-2. When the MIR186 micro-RNA sites were removed from the 3′-UTR of IL-2 the dynamic range of expression from constructs with this UTR increased 50 fold. The modified IL-2, 3′-UTR replaces CTT in the sequence with GAA and is shown below (the new GAA is underlined in the sequence):
Different combinations of the micro-RNA sites were removed from the 3′UTR of IFNg and tested for increased expression. When the mir125 micro-RNA sites were removed from the 3′-UTR of IFN-γ the expression rate from constructs with this UTR is increased.
Expression of GFP in T-cells, transfected with the RDE-GFP plus the microRNA sites, is compared to expression of GFP in T-cells with the RDE-GFP in which the microRNA sites have been removed, following activation with CD3/CD28 beads for 24 hours. The removal of the microRNA sites increased expression of the GFP by a factor of between 2-5 after 24 hours, relative to the cells with microRNA sites.

B1: RDE3: 3′-UTR of IL-2 modified to remove the mir186 sites (SEQ ID NO: 22) (nucleic acid, listed as Homo sapiens)
DNA: TAATTAAGTGCTTCCCACTTAAAACATATCAGGCCTTCTATTTATTTAAATATTTAAATTTTATATTTATTGTTGAATGTATGGTTTGCTACCTATTGTAACTATTATTCTTAATCTTAAAACTATAAATATGGATCTTTTATGATTGAATTTGTAAGCCCTAGGGGCTCTAAAATGGTTTCACTTATTTATCCCAAAATATTTATTATTATGTTGAATGTTAAATATAGTATCTATGTAGATTGGTTAGTAAAACTATTTAATAAATTTGATAAATATAAA
increase in bioluminescence with CAR stimulation (CD4+ T-cells; MinP promoter): 1.4 fold
increase in bioluminescence with CAR stimulation (CD4+ T-cells; NFAT promoter): 1.3 fold
amount of bioluminescence, rank among RDE constructs (CD4+ T-cells; with either promoter): highest amount of bioluminescence
increase of dynamic range of expression (T-cells): 50 fold
